Laboratory results as given in patent US20030108998.

Target: purified bovine aggrecan monomers isolated from bovine nasal cartilage, P13608
Sequence (P13608 17-2364): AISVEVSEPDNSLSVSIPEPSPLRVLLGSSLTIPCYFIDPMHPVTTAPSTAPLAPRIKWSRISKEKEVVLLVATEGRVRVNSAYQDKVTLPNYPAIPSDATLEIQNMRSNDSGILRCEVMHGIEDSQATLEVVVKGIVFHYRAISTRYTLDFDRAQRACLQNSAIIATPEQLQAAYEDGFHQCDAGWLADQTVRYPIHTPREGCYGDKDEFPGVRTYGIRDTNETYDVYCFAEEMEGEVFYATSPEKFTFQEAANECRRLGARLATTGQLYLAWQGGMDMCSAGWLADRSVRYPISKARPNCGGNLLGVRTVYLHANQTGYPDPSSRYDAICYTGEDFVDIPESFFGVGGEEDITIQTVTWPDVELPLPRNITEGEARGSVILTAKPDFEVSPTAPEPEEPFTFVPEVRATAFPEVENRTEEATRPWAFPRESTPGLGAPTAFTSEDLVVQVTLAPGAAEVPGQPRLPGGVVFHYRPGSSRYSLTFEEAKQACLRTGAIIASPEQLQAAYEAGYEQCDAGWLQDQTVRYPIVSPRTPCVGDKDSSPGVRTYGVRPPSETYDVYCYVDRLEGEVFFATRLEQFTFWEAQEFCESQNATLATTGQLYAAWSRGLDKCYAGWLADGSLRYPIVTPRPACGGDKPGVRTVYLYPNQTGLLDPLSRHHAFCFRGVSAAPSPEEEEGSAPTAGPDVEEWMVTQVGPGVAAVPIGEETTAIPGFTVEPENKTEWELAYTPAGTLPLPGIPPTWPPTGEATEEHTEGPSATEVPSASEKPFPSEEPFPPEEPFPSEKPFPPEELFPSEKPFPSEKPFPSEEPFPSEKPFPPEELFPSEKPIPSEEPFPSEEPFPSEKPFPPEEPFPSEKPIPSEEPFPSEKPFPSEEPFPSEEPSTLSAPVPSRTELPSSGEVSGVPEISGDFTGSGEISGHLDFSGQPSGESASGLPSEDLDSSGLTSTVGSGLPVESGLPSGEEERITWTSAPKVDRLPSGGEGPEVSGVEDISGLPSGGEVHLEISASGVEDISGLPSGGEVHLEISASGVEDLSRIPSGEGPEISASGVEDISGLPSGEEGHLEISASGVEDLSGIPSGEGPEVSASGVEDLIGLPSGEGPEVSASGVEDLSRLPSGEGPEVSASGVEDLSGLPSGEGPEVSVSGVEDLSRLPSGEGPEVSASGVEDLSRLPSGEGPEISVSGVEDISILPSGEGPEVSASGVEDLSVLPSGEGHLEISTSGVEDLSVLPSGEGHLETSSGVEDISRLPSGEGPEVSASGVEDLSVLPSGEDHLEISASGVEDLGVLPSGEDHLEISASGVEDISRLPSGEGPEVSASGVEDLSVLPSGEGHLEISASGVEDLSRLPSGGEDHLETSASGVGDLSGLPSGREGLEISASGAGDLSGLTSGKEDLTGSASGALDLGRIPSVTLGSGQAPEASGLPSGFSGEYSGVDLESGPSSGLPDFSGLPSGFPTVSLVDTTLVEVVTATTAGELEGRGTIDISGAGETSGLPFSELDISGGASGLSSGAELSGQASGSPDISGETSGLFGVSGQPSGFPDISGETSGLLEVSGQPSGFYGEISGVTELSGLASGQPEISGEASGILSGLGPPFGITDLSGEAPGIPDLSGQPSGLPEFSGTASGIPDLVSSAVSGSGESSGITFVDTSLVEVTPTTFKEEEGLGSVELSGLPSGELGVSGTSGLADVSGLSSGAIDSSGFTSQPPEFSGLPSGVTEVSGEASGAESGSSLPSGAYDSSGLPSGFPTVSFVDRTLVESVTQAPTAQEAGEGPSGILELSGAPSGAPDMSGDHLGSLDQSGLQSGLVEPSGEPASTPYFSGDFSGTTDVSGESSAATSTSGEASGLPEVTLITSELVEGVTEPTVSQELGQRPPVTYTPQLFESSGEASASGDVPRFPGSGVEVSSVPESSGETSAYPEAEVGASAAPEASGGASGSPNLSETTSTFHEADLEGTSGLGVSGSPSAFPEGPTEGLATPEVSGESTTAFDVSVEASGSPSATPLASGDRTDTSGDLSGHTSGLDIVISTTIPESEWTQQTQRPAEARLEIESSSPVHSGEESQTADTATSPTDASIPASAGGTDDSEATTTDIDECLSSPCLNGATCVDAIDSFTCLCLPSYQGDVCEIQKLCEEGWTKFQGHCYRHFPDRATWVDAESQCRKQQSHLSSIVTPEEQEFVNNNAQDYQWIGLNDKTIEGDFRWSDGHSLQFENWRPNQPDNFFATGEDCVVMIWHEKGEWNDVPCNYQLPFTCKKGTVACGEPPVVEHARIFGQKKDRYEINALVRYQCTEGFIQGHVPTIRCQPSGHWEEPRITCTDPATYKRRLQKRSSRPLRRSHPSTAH

B1: ADMP-1 (aggrecan degrading metallo protease 1), 67 kDa active form purified from conditioned media of IL-1-stimulated bovine nasal cartilage (protein)
chain: FASLSRFVETLVVADDKMAAFHGAGLKRYLLTVMAAAAKAFKHPSIRNPVSLVVTRLVVLGPGEEGPQVGPSAAQTLRSFCAWQRGLNTPDDADPGHFDTAILFTRQDLCGVSTCDTLGMADVGTVCDPARSCAIVEDDGLQSAFTAAHELGHVFSMLHDNSKQCTGLNGPESTSRHVMAPVMAHVDPEEPWSPCSARFITDFLDNGFGHCLLDKPEAPLHLPVTFPGKDYDADRQCQLTFGPDSRHCPQLPPPCAALWCSGHLNGHAMCQTKHSPWADGTPCGPAQACMGGRCLHVDQLQAFNVPQAGGWGPWGSWGDCSRSCGGGVQFSSRDCTRPVPRNGGKYCEGRRTRFRSCNTQDCPTGSALTFREEQCAAYNHRTDLFKNFPGPMDWVPRYTGVAPRDQCKLTCQTRALGYYYVLDPRVADGTPCSPDSSSVCVQGRCIHAGCDRVIGSKKKFDKCMVCGGDGSSCSKQSGSFKKFRYGYNNVVTIPAGATHILVRQQGSPSVRSLYLALKLPDGSYALNGEYTLIPSPTDVVLPGAVSLRYSGATAASETLSGHGPLAEPLTLQVLVAGNPQNARLRYSFFVPRPRPVPSTPRPTPQDWLRRKSQILEILRRRSWAGRK
ADMP activity (incubation with aggrecan substrate, products monitored with the BC-3 antibody): The region of the gel containing the 67 kDa ADMP-1 protein exhibited activity while that of the control portion of the gel did not
cleavage of aggrecan at Glu373-Ala374, detected as BC-3-reactive fragments (Western blot): Incubation of the GuHCl-eluted ADMP-1 with isolated bovine aggrecan produced a pattern of BC-3-reactive fragments similar to that produced upon cleavage of cartilage aggrecan by endogenous aggrecanase
